Experiment [1] concerns the target core-bradavidin (Bradyrhizobium japonicum). The experiment is described as follows: ITC; core-bradavidin in the cell, ligand (Brad-tag or Brad-tag–EGFP) in the syringe, 15°C, 50 mM sodium phosphate pH 7.0, 100 mM NaCl; n is the stoichiometry per subunit.
The target is the same in experiment [2]. The description is as above. This is another data set of the same source.
The target is the same in experiment [3]. The experiment is described as follows: ITC; core-bradavidin, avidin, streptavidin or rhizavidin in the cell, Brad-tag in the syringe, 40°C, 50 mM sodium phosphate pH 7.0, 100 mM NaCl; n is the stoichiometry per subunit.

Consider SEKLSNTK [Brad-tag (synthetic peptide SEKLSNTK)], for which the dH in experiment [1] is 1.1 kcal/mol. Moreover, in experiment [2], the Kd came to 25 µM, the dH turned out to be 1.7 kcal mol^–1 and the stoichiometry N is 0.94. Moreover, in experiment [3], the Kd was 26 µM, the dH was -4.4 kcal mol^–1 and the stoichiometry N came out at 0.62.

The values are drawn from paper PMC3344845, “Structure of Bradavidin – C-Terminal Residues Act as Intrinsic Ligands” (PLoS ONE, 2012).
